Measured values taken from the RNAGym collection of RNA variant scans (doi:10.1093/molbev/msab373).

B1: Azoarcus group I ribozyme (parent)
chain: GUGCCUUGCGCCGGGAAACCACGCAAGGGAUGGUGUCAAAUUCGGCGAAACCUAAGCGCCCGCCCGGGCGUAUGGCAACGCCGAGCCAAGCUUCGGCGCCUGCGCCGAUGAAGGUGUAGAGACUAGACGGCACCCACCUAAGGCAAACGCUAUGGUGAAGGCAUAGUCCAGGGAGUGGCGAAAGUCACACAAACCGG

Variants of: B1
Test: reverse-splicing fitness (ratio to wild type); higher = more active; in vitro selection; Mg2+ level not given
Procedure, shortened: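 An in vitro group I ribozyme library with randomized positions was T7-transcribed and gel-purified. In triplicate, 10 pmol RNA in EPPS pH 7.5 was reacted with 50 pmoles of a 30-nt RNA substrate for 1 h at 37 °C across several added MgCl2 levels (1–48 mM), then stopped with EDTA. Products were reverse transcribed from a substrate-complementary primer, PCR-amplified and sequenced (HiSeq 4000). Fitness is a variant's read proportion after selection over that before, normalised to wild type.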

Variant	reverse-splicing fitness
C82U A111G A145C C150U U176A	0.0454
C82U A111G A145C C150U U176G	0.0185
C82U A111G A145C C150U U176C	0.0617
C82U A111G C150A U176C	0.0361
C82U A111G C150A U176A	0.0272
C82U A111G C150A U176G	0.0117
C82U A111G A145C C150A C169G	0.0066
C82U A111G A145C C150A C169U	0.00807
C82U A111G A145C C150A C169A	0.0083
C82U A111U A120C A145C C150G C169U U176G	0.00477
C82U A111U A120C A145C C150G C169U U176C	0.0116
C82U A111U A120C A145C C150G C169U U176A	0.0108
C82U A111G A145U C169A	0.00645
C82U A111G A145U C169G	0.00731
C82U A111G A145U C169U	0.0102
C82U A111G A145G C150U C169U U176G	0.005
C82U A111G A145G C150U C169U U176C	0.0132
C82U A111G A145G C150U C169U U176A	0.0132
C82U A111G A145U C150G C169U U176A	0.00755
C82U A111G A145U C150G C169U U176C	0.0112
C82U A111G A145U C150G C169U U176G	0.00472

Variant	reverse-splicing fitness
C82U A111G A145C C150A U176C	0.0142
C82U A111G A145C C150A U176A	0.0156
C82U A111G A145C C150A U176G	0.00788
C82U A111G A145G C150A C169A U176C	0.0247
C82U A111G A145G C150A C169A U176G	0.00546
C82U A111G A145G C150A C169A U176A	0.0187
C82U A111G A145C C150U C169G U176G	0.00565
C82U A111G A145C C150U C169G U176A	0.0186
C82U A111G A145C C150U C169G U176C	0.00977
C82U A111U A120C A145G C150A C169A U176A	0.0207
C82U A111U A120C A145G C150A C169A U176G	0.0059
C82U A111U A120C A145G C150A C169A U176C	0.0189
C82U A111G A145U C169G U176G	0.00474
C82U A111G A145U C169G U176A	0.00999
C82U A111G A145U C169G U176C	0.00876
C82U A111G A145U C150A C169G U176A	0.0131
C82U A111G A145U C150A C169G U176C	0.0113
C82U A111G A145U C150A C169G U176G	0.00518
C82U A111G A145U C150A C169U U176G	0.00567
C82U A111G A145U C150A C169U U176A	0.013
C82U A111G A145U C150A C169U U176C	0.012

Variant	reverse-splicing fitness
C82U A111G C150G	0.0267
C82U A111G C150A	0.0385
C82U A111G C150U	0.224
C82U A111G C150U C169U U176G	0.00589
C82U A111G C150U C169U U176A	0.0126
C82U A111G C150U C169U U176C	0.0133
C82U A111G A145U C150U C169G	0.00858
C82U A111G A145U C150U C169A	0.00819
C82U A111G A145U C150U C169U	0.0088
C82U A111G A145U U176C	0.258
C82U A111G A145U U176G	0.0781
C82U A111G A145U U176A	0.204
C82U A111G A145C C150G U176A	0.0112
C82U A111G A145C C150G U176G	0.00329
C82U A111G A145C C150G U176C	0.0249
C82U A111G A145G C169A U176C	0.022
C82U A111G A145G C169A U176A	0.0185
C82U A111G A145G C169A U176G	0.00491
C82U A111U A120C A145C C169U U176C	0.0109
C82U A111U A120C A145C C169U U176G	0.00412
C82U A111U A120C A145C C169U U176A	0.013

Variant	reverse-splicing fitness
C82U A111G A145U C150G C169G	0.00642
C82U A111G A145U C150G C169U	0.00901
C82U A111G A145U C150G C169A	0.00869
C82U A111G A145G C150A C169U U176A	0.0135
C82U A111G A145G C150A C169U U176G	0.00552
C82U A111G A145G C150A C169U U176C	0.0151
C82U A111G A145C C150A C169G U176A	0.0215
C82U A111G A145C C150A C169G U176G	0.0054
C82U A111G A145C C150A C169G U176C	0.0112
C82U A111G A145G C150U U176C	0.193
C82U A111G A145G C150U U176G	0.0312
C82U A111G A145G C150U U176A	0.135
C82U A111U A120C A145C C150U U176C	0.00856
C82U A111U A120C A145C C150U U176A	0.00801
C82U A111U A120C A145C C150U U176G	0.00423
C82U A111G C150A C169U	0.00979
C82U A111G C150A C169G	0.00918
C82U A111G C150A C169A	0.00969
C82U A111G A145G C150U	0.334
C82U A111G A145G C150G	0.0407
